# Data published in US20160068834A1 (published 2016).
# Like-named read-outs stand apart in the source and are kept apart here. Bridges are numbered along the chain shown (N, C = ends). Where no end group is shown, it is not given here. [ ]: non-standard residue; d: D form. The star is where a group is joined. FITC = O=C1OC2(c3ccc(O)cc3Oc3cc(O)ccc32)c2ccc(NC(=S)*)cc21; S5 = C=CCCC[C@](C)(N)C(=O)O; Nle = CCCC[C@H](N)C(=O)O
# How the values were obtained:
# [1] = biological target: T1, C-terminal His-tagged EED (His-EED) (UniProt O75530 1-441); assay: fluorescence polarization
# T1 sequence (O75530 whole entry): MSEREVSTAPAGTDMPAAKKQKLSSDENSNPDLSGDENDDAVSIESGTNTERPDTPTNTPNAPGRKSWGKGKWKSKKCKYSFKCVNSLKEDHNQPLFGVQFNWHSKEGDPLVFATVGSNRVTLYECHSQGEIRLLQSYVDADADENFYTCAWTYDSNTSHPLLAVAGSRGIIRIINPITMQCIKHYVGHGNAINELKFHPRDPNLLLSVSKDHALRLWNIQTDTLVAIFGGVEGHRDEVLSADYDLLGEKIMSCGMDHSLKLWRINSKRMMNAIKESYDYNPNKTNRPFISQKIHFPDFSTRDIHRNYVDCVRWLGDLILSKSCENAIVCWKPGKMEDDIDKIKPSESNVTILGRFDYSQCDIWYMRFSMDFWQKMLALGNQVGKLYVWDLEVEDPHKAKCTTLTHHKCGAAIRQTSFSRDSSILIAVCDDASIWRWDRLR
# [2] = biological target: T1, C-terminal His-tagged EED (His-EED); assay: fluorescence polarization; remark: listed apart in the source
# [3] = biological target: purified EED (Example 6) (UniProt O75530 1-441); assay: competitive fluorescence polarization; competition against FITC-EZH2(42-68)
# Sequence of purified EED (Example 6) (O75530 whole entry): as above
Binder,Kd [1],further results
{FITC}-FSSNRQKILERT[S5]ILN[S5]EWKQRRIQPV (staple 13-17) [FITC-SAH-EZH2B(42-68)],528 nM,–
{FITC}-FSSNR[S5]KIL[S5]RTQILNQEWKQRRIQPV (staple 6-10) [FITC-SAH-EZH2A(42-68)E54Q],–,Kd [2]: 320 nM
{FITC}-FSSNR[S5]KIL[S5]RTQILNQQWKQRRIQPV (staple 6-10) [FITC-SAH-EZH2A(42-68)E54Q/E59Q],–,Kd [2]: > 10000 nM
{FITC}-FSSNR[S5]KIL[S5]RTEILNQEWKQRRIQPV (staple 6-10) [FITC-SAH-EZH2A(42-68)],468 nM,–
{FITC}-S[Nle]FSSNR[S5]KIL[S5]RTEILNQEWKQRRIQPV (staple 8-12) [FITC-SAH-EZH2A(40-68)],333 nM,–
"Ac-FSSNR[S5]KIL[S5]RT[S5]ILN[S5]EWKQRRIQPV (staple 6-10, 13-17) [acetyl-SAH-EZH2(42-68)AC]",–,Kd [3]: 650 nM
Ac-FSSNR[S5]KIL[S5]RTQILNQEWKQRRIQPV (staple 6-10) [acetyl-SAH-EZH2],–,Kd [3]: 1130 nM
{FITC}-S[Nle]FSSNRQKILERT[S5]ILN[S5]EWKQRRIQPV (staple 15-19) [FITC-SAH-EZH2B(40-68)],264 nM,–
